Data on 125 sequences can be found in the supplement of paper PMC9112550, “Optimization of the antimicrobial peptide Bac7 by deep mutational scanning” (BMC Biology, 2022).

In this data set the test system is Escherichia coli TOP10. Kind of data set: shrunken log2 fold change of peptide-encoding DNA abundance (4.5 h post-induction vs induction); higher = less antimicrobial activity (less host growth inhibition). As to conditions: time post-induction: 4.5 h; library: site-saturation at positions 5, 18, 19, 20.
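Further: peptides expressed intracellularly from a pBAD plasmid library in pooled LB shake-flask culture, induced with 0.3% L-arabinose, DNA abundance read by NGS, three biological replicates, DESeq2 with apeglm shrinkage.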

On to RRIRARPPRLPRPRPRPHWEPRP, for which the “shrunken log2 fold change” value was -0.00635.

As for RRIRRRPPRLPRPRPRPWKIPRP, the “shrunken log2 fold change” value is -0.11.

For RRIRTRPPRLPRPRPRPMYDPRP, the “shrunken log2 fold change” value was -0.161.

As for RRIRGRPPRLPRPRPRPYHVPRP, the “shrunken log2 fold change” value is -0.0512.

For RRIRPRPPRLPRPRPRPHHIPRP, the “shrunken log2 fold change” value is -0.544.

As for RRIRHRPPRLPRPRPRPHSAPRP, the “shrunken log2 fold change” value worked out at 0.0327.

For the sequence RRIRHRPPRLPRPRPRPFAYPRP, the “shrunken log2 fold change” value was -0.0167.

In the case of RRIRTRPPRLPRPRPRPCNAPRP, the “shrunken log2 fold change” value is -0.228.

RRIRNRPPRLPRPRPRPMVEPRP: the “shrunken log2 fold change” value is -0.481.

As for RRIRFRPPRLPRPRPRPMKTPRP, the “shrunken log2 fold change” value is -0.0807.

For RRIRKRPPRLPRPRPRPAAMPRP, the “shrunken log2 fold change” value turned out to be 0.707.

As to RRIRNRPPRLPRPRPRPEPAPRP, the “shrunken log2 fold change” value was 0.88.

Take RRIRARPPRLPRPRPRPPFRPRP: the “shrunken log2 fold change” value was determined as 0.977.

For the sequence RRIRIRPPRLPRPRPRPGRNPRP, the “shrunken log2 fold change” value turned out to be 0.0581.

RRIRWRPPRLPRPRPRPMFVPRP: the “shrunken log2 fold change” value is -0.51.

In the case of RRIRHRPPRLPRPRPRPELKPRP, the “shrunken log2 fold change” value was 0.127.

Turning to RRIRVRPPRLPRPRPRPWTCPRP, the “shrunken log2 fold change” value is -0.0943.

Turning to RRIRPRPPRLPRPRPRPQYDPRP, the “shrunken log2 fold change” value is -0.638.

Regarding RRIRSRPPRLPRPRPRPRFNPRP, the “shrunken log2 fold change” value was -0.153.

Turning to RRIRHRPPRLPRPRPRPHTQPRP, the “shrunken log2 fold change” value was found to be 0.0972.

Turning to RRIRCRPPRLPRPRPRPKEHPRP, the “shrunken log2 fold change” value is -0.201.

Regarding RRIRCRPPRLPRPRPRPKLIPRP, the “shrunken log2 fold change” value was -0.0459.

With RRIRKRPPRLPRPRPRPPMIPRP, the “shrunken log2 fold change” value was -0.0795.

Consider RRIRPRPPRLPRPRPRPICVPRP, for which the “shrunken log2 fold change” value is -0.215.

For RRIRYRPPRLPRPRPRPWITPRP, the “shrunken log2 fold change” value is -0.0192.

In the case of RRIRTRPPRLPRPRPRPNYIPRP, the “shrunken log2 fold change” value was -0.74.

In the case of RRIRMRPPRLPRPRPRPVCWPRP, the “shrunken log2 fold change” value stood at 0.833.

RRIRKRPPRLPRPRPRPTDFPRP: the “shrunken log2 fold change” value amounted to 0.118.

Consider RRIRNRPPRLPRPRPRPMHDPRP, for which the “shrunken log2 fold change” value is -0.117.

As for RRIRPRPPRLPRPRPRPLINPRP, the “shrunken log2 fold change” value was -0.298.

Take RRIRMRPPRLPRPRPRPNQHPRP: the “shrunken log2 fold change” value is -0.0206.

As to RRIRARPPRLPRPRPRPTVMPRP, the “shrunken log2 fold change” value came out at 0.497.

RRIRCRPPRLPRPRPRPDALPRP: the “shrunken log2 fold change” value was found to be 0.0862.

Consider RRIRGRPPRLPRPRPRPESIPRP, for which the “shrunken log2 fold change” value came to 0.483.

Take RRIRVRPPRLPRPRPRPGWRPRP: the “shrunken log2 fold change” value is 0.49.

For RRIRWRPPRLPRPRPRPYFDPRP, the “shrunken log2 fold change” value is -0.811.

RRIRYRPPRLPRPRPRPRTMPRP: the “shrunken log2 fold change” value is -1.72.

As for RRIRRRPPRLPRPRPRPHCGPRP, the “shrunken log2 fold change” value is -0.0836.

For the sequence RRIRLRPPRLPRPRPRPDQSPRP, the “shrunken log2 fold change” value turned out to be 0.0621.

Take RRIRDRPPRLPRPRPRPPASPRP: the “shrunken log2 fold change” value is 0.513.

Consider RRIRKRPPRLPRPRPRPWHGPRP, for which the “shrunken log2 fold change” value is -0.165.

Take RRIRSRPPRLPRPRPRPTKNPRP: the “shrunken log2 fold change” value amounted to 0.168.

Take RRIRMRPPRLPRPRPRPLKDPRP: the “shrunken log2 fold change” value worked out at 0.0898.

For RRIRKRPPRLPRPRPRPVMMPRP, the “shrunken log2 fold change” value came to 0.155.

As for RRIRFRPPRLPRPRPRPFAIPRP, the “shrunken log2 fold change” value is -0.109.

For the sequence RRIRMRPPRLPRPRPRPHLTPRP, the “shrunken log2 fold change” value was -0.0375.

In the case of RRIRCRPPRLPRPRPRPMFNPRP, the “shrunken log2 fold change” value is -0.848.

RRIRDRPPRLPRPRPRPWCYPRP: the “shrunken log2 fold change” value was 0.155.

With RRIRNRPPRLPRPRPRPDPKPRP, the “shrunken log2 fold change” value is -0.00647.

Consider RRIRRRPPRLPRPRPRPCIQPRP, for which the “shrunken log2 fold change” value was -0.271.

As for RRIRMRPPRLPRPRPRPTYYPRP, the “shrunken log2 fold change” value is -0.554.

Regarding RRIRTRPPRLPRPRPRPISSPRP, the “shrunken log2 fold change” value is -0.0114.

As for RRIRSRPPRLPRPRPRPRSHPRP, the “shrunken log2 fold change” value was -0.203.

As for RRIRTRPPRLPRPRPRPRAFPRP, the “shrunken log2 fold change” value amounted to 0.184.

Turning to RRIRPRPPRLPRPRPRPQPGPRP, the “shrunken log2 fold change” value was determined as 0.204.

On to RRIRERPPRLPRPRPRPNKSPRP, for which the “shrunken log2 fold change” value is -0.369.

With RRIRYRPPRLPRPRPRPHIEPRP, the “shrunken log2 fold change” value was -1.47.

RRIRMRPPRLPRPRPRPNRFPRP: the “shrunken log2 fold change” value is -0.0257.

Turning to RRIRPRPPRLPRPRPRPKLWPRP, the “shrunken log2 fold change” value was 0.683.

Regarding RRIRIRPPRLPRPRPRPARNPRP, the “shrunken log2 fold change” value is -0.179.

As to RRIRCRPPRLPRPRPRPWHEPRP, the “shrunken log2 fold change” value was -0.0591.

Consider RRIRMRPPRLPRPRPRPHNVPRP, for which the “shrunken log2 fold change” value was 0.0515.

Regarding RRIRNRPPRLPRPRPRPYEPPRP, the “shrunken log2 fold change” value was -0.0287.

With RRIRRRPPRLPRPRPRPMADPRP, the “shrunken log2 fold change” value came to 0.357.

Take RRIRQRPPRLPRPRPRPALTPRP: the “shrunken log2 fold change” value was 0.128.

Take RRIRGRPPRLPRPRPRPMGSPRP: the “shrunken log2 fold change” value was -0.0284.

As for RRIRNRPPRLPRPRPRPHKWPRP, the “shrunken log2 fold change” value is -0.285.

As to RRIRCRPPRLPRPRPRPSPEPRP, the “shrunken log2 fold change” value turned out to be 0.3.

Regarding RRIRRRPPRLPRPRPRPHMFPRP, the “shrunken log2 fold change” value worked out at 0.119.

RRIRMRPPRLPRPRPRPQRVPRP: the “shrunken log2 fold change” value turned out to be 1.27.

As to RRIRPRPPRLPRPRPRPGLYPRP, the “shrunken log2 fold change” value is -0.132.

As to RRIRQRPPRLPRPRPRPITPPRP, the “shrunken log2 fold change” value is -0.0347.

Regarding RRIRCRPPRLPRPRPRPQVPPRP, the “shrunken log2 fold change” value is -0.106.

For RRIRERPPRLPRPRPRPPQTPRP, the “shrunken log2 fold change” value turned out to be 0.223.

For the sequence RRIRHRPPRLPRPRPRPIWVPRP, the “shrunken log2 fold change” value was 0.0163.

Turning to RRIRKRPPRLPRPRPRPIQMPRP, the “shrunken log2 fold change” value is -0.107.

RRIRNRPPRLPRPRPRPYANPRP: the “shrunken log2 fold change” value was 0.0782.

For the sequence RRIRPRPPRLPRPRPRPPNMPRP, the “shrunken log2 fold change” value is -0.0209.

For the sequence RRIRQRPPRLPRPRPRPRFFPRP, the “shrunken log2 fold change” value is 0.0926.

In the case of RRIRERPPRLPRPRPRPCWGPRP, the “shrunken log2 fold change” value came out at 0.0218.

Regarding RRIRPRPPRLPRPRPRPQDVPRP, the “shrunken log2 fold change” value is -0.373.

Consider RRIRYRPPRLPRPRPRPMPKPRP, for which the “shrunken log2 fold change” value is -0.0102.

Turning to RRIRIRPPRLPRPRPRPFHEPRP, the “shrunken log2 fold change” value is -0.0627.

For RRIRVRPPRLPRPRPRPHRCPRP, the “shrunken log2 fold change” value is 0.0572.

RRIRYRPPRLPRPRPRPLLHPRP: the “shrunken log2 fold change” value is -0.541.

For the sequence RRIRDRPPRLPRPRPRPSFFPRP, the “shrunken log2 fold change” value is -0.168.

Regarding RRIRIRPPRLPRPRPRPLDVPRP, the “shrunken log2 fold change” value is -0.0639.

For RRIRSRPPRLPRPRPRPACIPRP, the “shrunken log2 fold change” value was -0.31.

Take RRIRVRPPRLPRPRPRPYCTPRP: the “shrunken log2 fold change” value is -0.284.

In the case of RRIRCRPPRLPRPRPRPCKAPRP, the “shrunken log2 fold change” value is -0.0437.

With RRIRDRPPRLPRPRPRPTQHPRP, the “shrunken log2 fold change” value amounted to 0.396.

Consider RRIRRRPPRLPRPRPRPPLIPRP, for which the “shrunken log2 fold change” value stood at 0.511.

As for RRIRSRPPRLPRPRPRPLDHPRP, the “shrunken log2 fold change” value came to 0.0458.

As for RRIRVRPPRLPRPRPRPSASPRP, the “shrunken log2 fold change” value is -0.2.

As for RRIRKRPPRLPRPRPRPKHKPRP, the “shrunken log2 fold change” value was determined as 0.362.

Take RRIRFRPPRLPRPRPRPQSTPRP: the “shrunken log2 fold change” value was -0.249.

As for RRIRLRPPRLPRPRPRPLVKPRP, the “shrunken log2 fold change” value was -0.00589.

For the sequence RRIRFRPPRLPRPRPRPAYRPRP, the “shrunken log2 fold change” value is -0.0676.

On to RRIRARPPRLPRPRPRPATDPRP, for which the “shrunken log2 fold change” value is 1.53.

Take RRIRPRPPRLPRPRPRPRSMPRP: the “shrunken log2 fold change” value amounted to 0.0858.

For the sequence RRIRLRPPRLPRPRPRPSEQPRP, the “shrunken log2 fold change” value was -0.153.

For the sequence RRIRFRPPRLPRPRPRPNADPRP, the “shrunken log2 fold change” value was -0.055.

For RRIRTRPPRLPRPRPRPRWFPRP, the “shrunken log2 fold change” value stood at 0.196.

Regarding RRIRARPPRLPRPRPRPTYKPRP, the “shrunken log2 fold change” value is -0.23.

Turning to RRIRPRPPRLPRPRPRPMQSPRP, the “shrunken log2 fold change” value was 0.524.

In the case of RRIRMRPPRLPRPRPRPFSCPRP, the “shrunken log2 fold change” value was -0.115.

In the case of RRIRFRPPRLPRPRPRPMCIPRP, the “shrunken log2 fold change” value is -0.075.

As to RRIRFRPPRLPRPRPRPQKLPRP, the “shrunken log2 fold change” value is -0.211.

Take RRIRNRPPRLPRPRPRPALKPRP: the “shrunken log2 fold change” value was determined as 0.108.

RRIRARPPRLPRPRPRPDNTPRP: the “shrunken log2 fold change” value is -0.214.

In the case of RRIRHRPPRLPRPRPRPIEHPRP, the “shrunken log2 fold change” value is -0.394.

On to RRIRFRPPRLPRPRPRPFQMPRP, for which the “shrunken log2 fold change” value was -0.647.

Consider RRIRRRPPRLPRPRPRPQFEPRP, for which the “shrunken log2 fold change” value came to 0.16.

Regarding RRIRQRPPRLPRPRPRPEFTPRP, the “shrunken log2 fold change” value was -0.0117.

On to RRIRRRPPRLPRPRPRPFSVPRP, for which the “shrunken log2 fold change” value worked out at 0.0458.

For RRIRLRPPRLPRPRPRPGGKPRP, the “shrunken log2 fold change” value is -0.00333.

On to RRIRYRPPRLPRPRPRPPNNPRP, for which the “shrunken log2 fold change” value was -0.708.

RRIRGRPPRLPRPRPRPPYWPRP: the “shrunken log2 fold change” value is 0.355.

For the sequence RRIRARPPRLPRPRPRPSKDPRP, the “shrunken log2 fold change” value is -0.111.

For RRIRVRPPRLPRPRPRPLLPPRP, the “shrunken log2 fold change” value is 0.328.

On to RRIRFRPPRLPRPRPRPEHYPRP, for which the “shrunken log2 fold change” value is -0.101.

For the sequence RRIRTRPPRLPRPRPRPRAKPRP, the “shrunken log2 fold change” value was determined as 0.346.

For the sequence RRIRSRPPRLPRPRPRPIGDPRP, the “shrunken log2 fold change” value stood at 0.0153.

For RRIRKRPPRLPRPRPRPVADPRP, the “shrunken log2 fold change” value was found to be 0.14.

Consider RRIRCRPPRLPRPRPRPGEPPRP, for which the “shrunken log2 fold change” value was 0.0366.
